These results are taken from patent US20260139033A1 (PRANA THERAPIES, published 2026).

Bounds are passed on as bounds.

Assay [1] concerns the target T1, recombinant human TSLP (human, UniProt Q969D9 29-159).
T1 construct: also called thymic stromal lymphopoietin
The experiment in a line: SPR (Biacore 3000, CM5 chip, 25 C): complex captured via protein A, TSLP as analyte, 1:1 fit; column 'TSLP binding(pM)'. Here is the method: (§1) SPR studies were carried out on a Biacore 3000 instrument with a CM5 chip at 25° C. The running buffer comprised 25 mM Hepes, pH 7.5, 150 mM NaCl, 0.5 mg/ml BSA, 0.005% P20. Antibodies were captured via protein A using approximately a 1/50 dilution of each antibody in the running buffer and a 2-minute contact time at a 10 μl/min flow rate. Protein A was immobilized on a CM5 chip via standard amine coupling chemistry in 10 mM acetate pH 4.5. Approximately 800 RU of each antibody was captured. The surfaces were regenerated via a 10 mM glycine pH 1.5 between cycles. Between assays the chip was regenerated with a 2-minute pulse of 100 mM Phosphoric acid. Prior to setting up multicycle kinetic analysis analyte concentration was determined spectrophotometrically using an extinction coefficient of 72,880 M⁻¹ cm⁻¹ for IL4R and 18450 M⁻¹ cm⁻¹ for the TSLP proteins respectively. Analyte samples were prepared by diluting stocks into running buffer to a final concentration of 500 nM for the IL-4R and 25 nM for TSLP followed by serially diluting with a 2-fold series with an association time of 2.5 minutes at a 50 μl/min flow rate. Dissociation data was collected for a period of 1600 seconds. Raw data was analyzed using the Scrubber2 (Biologic Software, AU) program using a double referencing procedure where compound signal is corrected to a blank surface and a buffer injection over the captured antibody surface. Kinetic data was analyzed by fitting to a simple 1:1 binding model. […] The candidates are further described in Table 3.

Assay [2] deals with T1, recombinant human TSLP. The experiment in a line: SPR; column 'SPR (Biophysical binding): TSLP (pM)'. The method, then: as §1
On the technique in general: SPR reads the build-up and loss of mass on a sensor chip optically.

The target in assay [3] is T1, recombinant human TSLP. As to the kind of experiment: cell-based or functional assay.
The target of assay [4] is IL-4R on human donor PBMC (B-cells) (human, UniProt P24394 26-825). The experiment in a line: cell-based or functional assay.

B1: Candidate-42: Heavy and Light chain C-terminal TRAP: Dupilumab-YTE_Linker-GS4_TSLP TRAP 2 [4 x TRAP 2] (bispecific antibody, human IgG4 S228P, kappa)
heavy: EVQLVESGGGLEQPGGSLRLSCAGSGFTFRDYAMTWVRQAPGKGLEWVSSISGSGGNTYYADSVKGRFTISRDNSKNTLYLQMNSLRAEDTAVYYCAKDRLSITIRPRYYGLDVWGQGTTVTVSSASTKGPSVFPLAPCSRSTSESTAALGCLVKDYFPEPVTVSWNSGALTSGVHTFPAVLQSSGLYSLSSVVTVPSSSLGTKTYTCNVDHKPSNTKVDKRVESKYGPPCPPCPAPEFLGGPSVFLFPPKPKDTLYITREPEVTCVVVDVSQEDPEVQFNWYVDGVEVHNAKTKPREEQFNSTYRVVSVLTVLHQDWLNGKEYKCKVSNKGLPSSIEKTISKAKGQPREPQVYTLPPSQEEMTKNQVSLTCLVKGFYPSDIAVEWESNGQPENNYKTTPPVLDSDGSFFLYSRLTVDKSRWQEGNVFSCSVMHEALHNHYTQKSLSLSLGGGGGSGGGGSGGGGSGGGGSESGYAQNGDLEDAELDDYSFSCYSQLEVNGSQHSLTCAFEDPDVNITNLEFEICGALVEVKCLNFRKLQEIYFIETKKFLLIGKSNICVKVGEKSLTCKKIDLTTIVKPEAPFDLSVVYREGANDFVVTFNTSHLQKKYVKVLMHDVAYRQEKDENKWTHVNLSSTKLTLLQRKLQPAAMYEIKVRSIPDHYFKGFWSEWSPSYYFRTPEINNSSGEMDGGSGGSGGSGGSGGSGGSGGSGGSGGSGGSGGSGGSGGSGGSGGSGGSGGSGGSGGSGGSGAAEGVQIQIIYFNLETVQVTWNASKYSRTNLTFHYRFNGDEAYDQCTNYLLQEGHTSGCLLDAEQRDDILYFSIRNGTHPVFTASRWMVYYLKPSSPKHVRFSWHQDAVTVTCSDLSYGDLLYEVQYRSPFDTEWQSKQENTCNVTIEGLDAEKCYSFWVRVKAMEDVYGPDTYPSDWSEVTCWQRGEIRDACAETPTPPKPKLSK
light: DIVMTQSPLSLPVTPGEPASISCRSSQSLLYSIGYNYLDWYLQKSGQSPQLLIYLGSNRASGVPDRFSGSGSGTDFTLKISRVEAEDVGFYYCMQALQTPYTFGQGTKLEIKRTVAAPSVFIFPPSDEQLKSGTASVVCLLNNFYPREAKVQWKVDNALQSGNSQESVTEQDSKDSTYSLSSTLTLSKADYEKHKVYACEVTHQGLSSPVTKSFNRGECGGGGSGGGGSGGGGSGGGGSESGYAQNGDLEDAELDDYSFSCYSQLEVNGSQHSLTCAFEDPDVNITNLEFEICGALVEVKCLNFRKLQEIYFIETKKFLLIGKSNICVKVGEKSLTCKKIDLTTIVKPEAPFDLSVVYREGANDFVVTFNTSHLQKKYVKVLMHDVAYRQEKDENKWTHVNLSSTKLTLLQRKLQPAAMYEIKVRSIPDHYFKGFWSEWSPSYYFRTPEINNSSGEMDGGSGGSGGSGGSGGSGGSGGSGGSGGSGGSGGSGGSGGSGGSGGSGGSGGSGGSGGSGGSGAAEGVQIQIIYFNLETVQVTWNASKYSRTNLTFHYRFNGDEAYDQCTNYLLQEGHTSGCLLDAEQRDDILYFSIRNGTHPVFTASRWMVYYLKPSSPKHVRFSWHQDAVTVTCSDLSYGDLLYEVQYRSPFDTEWQSKQENTCNVTIEGLDAEKCYSFWVRVKAMEDVYGPDTYPSDWSEVTCWQRGEIRDACAETPTPPKPKLSK
notes: The chains here are built from the component entries
What is called Kd is a measure of binding affinity in units of concentration. As for B1, the Kd in the assay with recombinant human TSLP [1] and with recombinant human TSLP [2] was 0.0162 nM throughout. Further, the “IC50, inhibition of TSLP responses (TARC secretion) in human PBMCs” value with recombinant human TSLP [3] was 2.37 nM. Moreover, the “IC50, CD23 upregulation on B cells of human PBMC in response to IL-4 (column 'Biological Assays: IL-4R (nM)')” value in assay [4] was above 200 nM.
